Laboratory results from patent US20250092426, “CAS ENDONUCLEASES AND RELATED METHODS” (Flagship Pioneering Innovations VII, LLC, published 2025).

Target: T1, CasEnd-29 (synthetic construct)
T1 chain: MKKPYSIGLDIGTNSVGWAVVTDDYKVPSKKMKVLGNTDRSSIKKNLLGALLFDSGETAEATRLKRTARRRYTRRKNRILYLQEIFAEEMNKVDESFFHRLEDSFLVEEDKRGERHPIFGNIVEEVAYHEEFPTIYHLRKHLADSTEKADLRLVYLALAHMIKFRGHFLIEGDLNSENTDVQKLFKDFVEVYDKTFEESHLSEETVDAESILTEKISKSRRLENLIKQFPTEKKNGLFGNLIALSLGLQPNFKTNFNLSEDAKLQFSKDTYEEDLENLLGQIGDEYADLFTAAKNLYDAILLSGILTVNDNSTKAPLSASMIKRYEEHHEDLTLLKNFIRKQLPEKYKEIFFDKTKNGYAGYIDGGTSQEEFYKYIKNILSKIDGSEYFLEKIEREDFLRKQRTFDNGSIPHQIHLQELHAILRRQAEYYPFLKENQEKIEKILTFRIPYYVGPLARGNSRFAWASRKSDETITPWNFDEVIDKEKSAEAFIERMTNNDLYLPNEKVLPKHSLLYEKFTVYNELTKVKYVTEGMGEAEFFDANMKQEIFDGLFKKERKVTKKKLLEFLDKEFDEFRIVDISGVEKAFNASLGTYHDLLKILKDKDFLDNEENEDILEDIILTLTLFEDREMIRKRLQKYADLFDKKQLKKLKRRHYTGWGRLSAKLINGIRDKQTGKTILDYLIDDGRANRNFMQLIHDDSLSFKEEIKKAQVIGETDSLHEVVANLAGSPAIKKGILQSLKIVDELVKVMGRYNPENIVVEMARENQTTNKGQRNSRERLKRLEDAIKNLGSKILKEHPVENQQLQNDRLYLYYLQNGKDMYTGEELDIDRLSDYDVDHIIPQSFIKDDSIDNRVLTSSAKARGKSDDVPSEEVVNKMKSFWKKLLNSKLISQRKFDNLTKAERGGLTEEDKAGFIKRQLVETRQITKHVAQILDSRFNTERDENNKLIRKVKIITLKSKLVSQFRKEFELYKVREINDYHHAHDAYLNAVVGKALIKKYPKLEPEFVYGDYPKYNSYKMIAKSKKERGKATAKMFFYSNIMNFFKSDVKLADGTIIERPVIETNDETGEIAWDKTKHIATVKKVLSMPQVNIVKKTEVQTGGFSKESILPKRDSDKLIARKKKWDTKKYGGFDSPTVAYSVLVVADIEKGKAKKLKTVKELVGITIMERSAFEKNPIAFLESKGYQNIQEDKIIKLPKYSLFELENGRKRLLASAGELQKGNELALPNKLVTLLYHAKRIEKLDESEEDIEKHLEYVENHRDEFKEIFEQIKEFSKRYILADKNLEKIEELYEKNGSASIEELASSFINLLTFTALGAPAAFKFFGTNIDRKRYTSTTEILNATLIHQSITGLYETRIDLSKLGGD
Experiment: cell_activity; +++; HEK293T; PAM not stated
Summary of the method: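 BFP-to-GFP conversion via reverse transcriptase fusion with each Cas endonuclease plus template RNA: 200 ng of each plasmid nucleofected into 250,000 BFP-expressing HEK293T cells (program DS-150). Percent GFP+ cells by flow cytometry at day 4 measured editing.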

B1: BFP-to-GFP template RNA ; BFP reporter protospacer (ssRNA ; dsDNA)
RNA: GCCGAAGCACUGCACGCCGUGUUUUAGAGCUAGAAAUAGCAAGUUAAAAUAAGGCUAGUCCGUUAUCAACUUGAAAAAGUGGCACCGAGUCGGUGCACCCUGACGUACGGCGUGCAGUGCUU
DNA 1: GCCGAAGCACTGCACGCCGT
DNA 2: ACGGCGTGCAGTGCTTCGGC
activity: ≥ 100 % of reference
